# Source: the supplement of paper PMC10567573
# B1: HSP90AB1 (parent)
# chain: QVANSAFVERVRKRGFEVVYMTEP
# B2: FAM46D (parent)
# chain: LELKFVSSLRRQFEFSVDSFQIVL
# Variants of: B1
# Test: protein stability index of a GFP-peptide fusion (GPS, HEK-293T) (PSI 1-6); higher = more stable
# Details: c terminus: a fixed tail appended
# 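Also: lentivirally expressed fusions sorted by FACS into six bins by GFP to DsRed ratio, PSI derived from sequencing read proportions per bin multiplied by bin number.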
row,Variant,protein stability index
1,LVANSAFVERVRKRGFEVVYMTEP,2.27
2,CVANSAFVERVRKRGFEVVYMTEP,1.57
3,IVANSAFVERVRKRGFEVVYMTEP,1.7
4,GVANSAFVERVRKRGFEVVYMTEP,2.33
5,NVANSAFVERVRKRGFEVVYMTEP,2.11
6,KVANSAFVERVRKRGFEVVYMTEP,2.17
7,YVANSAFVERVRKRGFEVVYMTEP,3.79
8,WVANSAFVERVRKRGFEVVYMTEP,1.46
9,SVANSAFVERVRKRGFEVVYMTEP,2.12
10,RVANSAFVERVRKRGFEVVYMTEP,1.71
11,EVANSAFVERVRKRGFEVVYMTEP,1.91
12,TVANSAFVERVRKRGFEVVYMTEP,1.95
13,MVANSAFVERVRKRGFEVVYMTEP,1.81
14,HVANSAFVERVRKRGFEVVYMTEP,1.85
15,AVANSAFVERVRKRGFEVVYMTEP,2.29
16,VVANSAFVERVRKRGFEVVYMTEP,2.73
17,DVANSAFVERVRKRGFEVVYMTEP,2.21
18,QVGNSAFVERVRKRGFEVVYMTEP,2.28
19,QVCNSAFVERVRKRGFEVVYMTEP,2.01
20,QVINSAFVERVRKRGFEVVYMTEP,2.06
21,QVFNSAFVERVRKRGFEVVYMTEP,1.87
22,QVKNSAFVERVRKRGFEVVYMTEP,2.81

row,Variant,protein stability index
1,QVLNSAFVERVRKRGFEVVYMTEP,1.85
2,QVDNSAFVERVRKRGFEVVYMTEP,2.11
3,QVENSAFVERVRKRGFEVVYMTEP,2.69
4,QVHNSAFVERVRKRGFEVVYMTEP,2.38
5,QLANSAFVERVRKRGFEVVYMTEP,2.01
6,QRANSAFVERVRKRGFEVVYMTEP,2.6
7,QAANSAFVERVRKRGFEVVYMTEP,2.87
8,QGANSAFVERVRKRGFEVVYMTEP,2.59
9,QPANSAFVERVRKRGFEVVYMTEP,2.85
10,QNANSAFVERVRKRGFEVVYMTEP,2.75
11,QTANSAFVERVRKRGFEVVYMTEP,2.41
12,QMANSAFVERVRKRGFEVVYMTEP,2.18
13,QCANSAFVERVRKRGFEVVYMTEP,1.74
14,QYANSAFVERVRKRGFEVVYMTEP,2.3
15,QFANSAFVERVRKRGFEVVYMTEP,2.47
16,QIANSAFVERVRKRGFEVVYMTEP,2.52
17,QHANSAFVERVRKRGFEVVYMTEP,2.49
18,QWANSAFVERVRKRGFEVVYMTEP,1.94
19,QSANSAFVERVRKRGFEVVYMTEP,2.69
20,QQANSAFVERVRKRGFEVVYMTEP,2.58
21,QDANSAFVERVRKRGFEVVYMTEP,3.15

# Variants of: B2
# Test: as above
# Details: c terminus: a fixed tail appended
row,Variant,protein stability index
1,LELKFVSSLRRQFEFSVDSFQISL,2.88
2,LELKFVSSLRRQFEFSVDSFQIGL,1.94
3,LELKFVSSLRRQFEFSVDSFQIRL,2.76
4,LELKFVSSLRRQFEFSVDSFQIHL,2.67
5,LELKFVSSLRRQFEFSVDSFQIYL,3.37
6,LELKFVSSLRRQFEFSVDSFQIEL,4.1
7,LELKFVSSLRRQFEFSVDSFQIPL,2.14
8,LELKFVSSLRRQFEFSVDSFQITL,2.62
9,LELKFVSSLRRQFEFSVDSFQIFL,1.98
10,LELKFVSSLRRQFEFSVDSFQIWL,3.15
11,LELKFVSSLRRQFEFSVDSFQINL,3.11
12,LELKFVSSLRRQFEFSVDSFQIAL,3.08
13,LELKFVSSLRRQFEFSVDSFQIIL,2.6
14,LELKFVSSLRRQFEFSVDSFQILL,2.9
15,LELKFVSSLRRQFEFSVDSFQIQL,2.29
16,LELKFVSSLRRQFEFSVDSRQIVL,2.22
17,LELKFVSSLRRQFEFSVDSIQIVL,3.44
18,LELKFVSSLRRQFEFSVDSAQIVL,2.99
19,LELKFVSSLRRQFEFSVDSWQIVL,3.5
20,LELKFVSSLRRQFEFSVDSPQIVL,3.04
21,LELKFVSSLRRQFEFSVDSSQIVL,2.55
22,LELKFVSSLRRQFEFSVDSKQIVL,3.31
23,LELKFVSSLRRQFEFSVDSMQIVL,2.58
24,LELKFVSSLRRQFEFSVDSLQIVL,2.59
25,LELKFVSSLRRQFEFSVDSYQIVL,3.11

row,Variant,protein stability index
1,LELKFVSSLRRQFEFSVDSEQIVL,3.3
2,LELKFVSSLRRQFEFSVDSCQIVL,2.73
3,LELKFVSSLRRQFEFSVDSNQIVL,3.48
4,LELKFVSSLRRQFEFSVDSQQIVL,1.61
5,LELKFVSSLRRQFEFSVDSDQIVL,2.94
6,LELKFVSSLRRQFEFSVDSGQIVL,2.96
7,LELKFVSSLRRQFEFSVDSHQIVL,2.62
8,LELKFVSSLRRQFEFSVDSTQIVL,1.62
9,LELKFVSSLRRQFEFYVDSFQIVL,2.83
10,LELKFVSSLRRQFEFVVDSFQIVL,3.91
11,LELKFVSSLRRQFEFTVDSFQIVL,4.1
12,LELKFVSSLRRQFEFSVDFFQIVL,3.6
13,LELKFVSSLRRQFEFSVDTFQIVL,2.43
14,LELKFVSSLRRQFEFSVDHFQIVL,3.92
15,LELKFVSSLRRQFEFSVDIFQIVL,4.06
16,LELKFVSSLRRQFEFSVDRFQIVL,2.38
17,LELKFVSSLRRQFEFSVDYFQIVL,2.75
18,LELKFVSSLRRQFEFSVDDFQIVL,3.06
19,LELKFVSSLRRQFEFSVDKFQIVL,2.88
20,LELKFVSSLRRQFEFSVDEFQIVL,3.31
21,LELKFVSSLRRQFEFSVDMFQIVL,4.08
22,LELKFVSSLRRQFEFSVDVFQIVL,2.12
23,LELKFVSSLRRQFEFSVDPFQIVL,2.18
24,LELKFVSSLRRQFEFSVDAFQIVL,3.69
25,LELKFVSSLRRQFEFSVDWFQIVL,3.19

row,Variant,protein stability index
1,LELKFVSSLRRQFEFSVDCFQIVL,2.44
2,LELKFVSSLRRQFEFSVDGFQIVL,3.42
3,LELKFVSSLRRQFEFSVDLFQIVL,2.88
4,LELKFVSSLRRQFEFSVDNFQIVL,4
5,LELKFVSSLRRQFEFSVASFQIVL,4.25
6,LELKFVSSLRRQFEFSVHSFQIVL,4.76
7,LELKFVSSLRRQFEFSVLSFQIVL,2.1
8,LELKFVSSLRRQFEFSVNSFQIVL,3.43
9,LELKFVSSLRRQFEFSVPSFQIVL,3.29
10,LELKFVSSLRRQFEFSVMSFQIVL,4.61
11,LELKFVSSLRRQFEFSVWSFQIVL,3.27
12,LELKFVSSLRRQFEFSVRSFQIVL,3.4
13,LELKFVSSLRRQFEFSVESFQIVL,1.74
14,LELKFVSSLRRQFEFSVISFQIVL,3.49
15,LELKFVSSLRRQFEFSVQSFQIVL,3.71
16,LELKFVSSLRRQFEFSVGSFQIVL,2.54
17,LELKFVSSLRRQFEFSVYSFQIVL,3.18
18,LELKFVSSLRRQFEFSVVSFQIVL,3.13
19,LELKFVSSLRRQFEFSVSSFQIVL,2.94
20,LELKFVSSLRRQFEFSVFSFQIVL,2.06
21,LELKFVSSLRRQFEFSVCSFQIVL,2
22,LELKFVSSLRRQFEFSVKSFQIVL,3.6
23,LELKFVSSLRRQFEFSNDSFQIVL,3.45
24,LELKFVSSLRRQFEFSTDSFQIVL,2.76
25,LELKFVSSLRRQFEFSLDSFQIVL,3.25

row,Variant,protein stability index
1,LELKFVSSLRRQFEFSIDSFQIVL,2.8
2,LELKFVSSLRRQFEFSGDSFQIVL,2.62
3,LELKFVSSLRRQFEFSFDSFQIVL,2.88
4,LELKFVSSLRRQFEFSWDSFQIVL,4.01
5,LELKFVSSLRRQFEFSCDSFQIVL,3.37
6,LELKFVSSLRRQFEFSDDSFQIVL,4.26
7,LELKFVSSLRRQFEFSMDSFQIVL,4.44
8,LELKFVSSLRRQFEFSYDSFQIVL,1.51
9,LELKFVSSLRRQFEFSHDSFQIVL,3.65
10,LELKFVSSLRRQFEFSPDSFQIVL,2.44
11,LELKFVSSLRRQFEFSEDSFQIVL,1.91
12,LELKFVSSLRRQFEFSKDSFQIVL,2.76
13,LELKFVSSLRRQFEFSADSFQIVL,2.4
14,LELKFVSSLRRQFEFSRDSFQIVL,3.4
15,LELKFVSSLRRQFEFSSDSFQIVL,2.19
16,LELKFVSSLRRQFEFSVDSFLIVL,2.24
17,LELKFVSSLRRQFEFSVDSFTIVL,2.68
18,LELKFVSSLRRQFEFSVDSFKIVL,3.44
19,LELKFVSSLRRQFEFSVDSFPIVL,2.71
20,LELKFVSSLRRQFEFSVDSFAIVL,2.85
21,LELKFVSSLRRQFEFSVDSFMIVL,2.78
22,LELKFVSSLRRQFEFSVDSFGIVL,3.02
23,LELKFVSSLRRQFEFSVDSFDIVL,2.69
24,LELKFVSSLRRQFEFSVDSFEIVL,2.47
25,LELKFVSSLRRQFEFSVDSFYIVL,2.8

row,Variant,protein stability index
1,LELKFVSSLRRQFEFSVDSFCIVL,3.58
2,LELKFVSSLRRQFEFSVDSFWIVL,2.89
3,LELKFVSSLRRQFEFSVDSFFIVL,2.74
4,LELKFVSSLRRQFEFSVDSFVIVL,2.67
5,LELKFVSSLRRQFEFSVDSFSIVL,2.89
6,LELKFVSSLRRQFEFSVDSFNIVL,2.75
7,LELKFVSSLRRQFEFSVDSFRIVL,3.02
8,LELKFVSSLRRQFEFSVDSFIIVL,3.59
9,LELKFVSSLRRQFEFSVDSFHIVL,2.63
10,LELKFVSSLRRQFEFSVDSFQHVL,1.5
11,LELKFVSSLRRQFEFSVDSFQMVL,3.31
12,LELKFVSSLRRQFEFSVDSFQVVL,3.07
13,LELKFVSSLRRQFEFSVDSFQCVL,2.93
14,LELKFVSSLRRQFEFSVDSFQYVL,3.01
15,LELKFVSSLRRQFEFSVDSFQFVL,3.23
16,LELKFVSSLRRQFEFSVDSFQSVL,2.36
17,LELKFVSSLRRQFEFSVDSFQKVL,1.71
18,LELKFVSSLRRQFEFSVDSFQNVL,3.28
19,LELKFVSSLRRQFEFSVDSFQWVL,2.8
20,LELKFVSSLRRQFEFSVDSFQGVL,3.17
21,LELKFVSSLRRQFEFSVDSFQDVL,2.6
22,LELKFVSSLRRQFEFSVDSFQRVL,2.04
23,LELKFVSSLRRQFEFSVDSFQLVL,2.7
24,LELKFVSSLRRQFEFSVDSFQTVL,2.21
25,LELKFVSSLRRQFEFSVDSFQEVL,2.65

row,Variant,protein stability index
1,LELKFVSSLRRQFEFSVDSFQAVL,2.26
2,LELKFVSSLRRQFEFSVDSFQPVL,4.29
3,LELKFVSSLRRQFEFSVDSFQIVS,3.63
4,LELKFVSSLRRQFEFSVDSFQIVC,3.35
5,LELKFVSSLRRQFEFSVDSFQIVM,2.73
6,LELKFVSSLRRQFEFSVDSFQIVP,2.58
7,LELKFVSSLRRQFEFSVDSFQIVF,3.74
8,LELKFVSSLRRQFEFSVDSFQIVE,3.4
9,LELKFVSSLRRQFEFSVDSFQIVQ,2.27
10,LELKFVSSLRRQFEFSVDSFQIVA,2.78
11,LELKFVSSLRRQFEFSVDSFQIVG,2.6
12,LELKFVSSLRRQFEFSVDSFQIVD,1.78
13,LELKFVSSLRRQFEFSVDSFQIVV,1.77
14,LELKFVSSLRRQFEFSVDSFQIVK,2.35
15,LELKFVSSLRRQFEFSVDSFQIVY,2.7
16,LELKFVSSLRRQFEFSVDSFQIVR,2.73
17,LELKFVSSLRRQFEFSVDSFQIVW,5.02
18,LELKFVSSLRRQFEFSVDSFQIVH,4.63
19,LELKFVSSLRRQFEFSVDSFQIVN,2.39
20,LELKFVSSLRRQFEFSVDSFQIVI,3.26
